Experimental data taken from article PMC3316158.

Columns and labels:
[1] = biological target: BRI1 W980 peptide (Arabidopsis); test: pull-down
[2] = biological target: AtCaM6 (Arabidopsis thaliana calmodulin 6), recombinant (Arabidopsis thaliana) (UniProt Q03509); test: native gel or EMSA

Substance | retained CaM7 with Ca^2+ relative to without Ca^2+ (densitometry) [1] [fold] | stoichiometry N (mol equivalent of peptide per AtCaM6) [2]
His6–AtCaM7 (Arabidopsis thaliana calmodulin 7) (from UniProt P59220 1-149) (natural protein) | 2.7 | 
Peptide representing the CaM-binding domain of mammalian CaMKII (Ca^2+/CaM-dependent protein kinase II) |  | 1
